First the molecules themselves.
B1: g5-D78-2_CLK19 (antibody, V domains shown)
VH: QVQLVQSGAEVKKPGASVKVSCKTSGYTFTGYFLHWVRQAPGQGLEWMGWINPNSGGINYAQKFQGRVTMTRDTSINTAYMELSRLRSDDTAVYYCTPVLTNFRWPFAFWGQGTLVTVSS
VL: DIQMTQSPSSLSASVGDRVTITCQASQDIKNYLNWYQQKPGTAPKLLIYDTSNLETGVPSRFSGRGSGTDFTFTISSLQPEDIATYYCQQYETFGPGTKVDIK
B2: g5-D78-6_CLK19 (antibody, V domains shown)
VH: QVQLVQSGAEVKKPGASVKVSCKTSGYTFTGYFLHWVRQAPGQGLEWMGWINPNSGGINYAQKFQGRVTMTRDTSIHTAYMELSRLRSDDTAVYYCTPVLTNFRWPFAFWGQGTLVTVSS
VL: DIQMTQSPSSLSASVGDRVTITCQASQDIKNYLNWYQQKPGTAPKLLIYDTSNLETGVPSRFSGGGSGTDFTFTISSLQPEDIATYYCQQYETFGPGTKVDIK
B3: g5-D78-5_CLK19 (antibody, V domains shown)
VH: QVQLVQSGAEVKKPGASVKVSCKASGYTFTDYFLHWVRQAPGQGLEWMGWINPNRGGVNYAQKFQGRVTMTRDTSINTAYMELSRLRSDDTAVYYCTPILTNFRWRFDFWGQGTLVTVSS
VL: DIQMTQSPSSLSASVGDRVTITCQASQDIQNYLNWYQQKPGTAPKLLIYDTSNLETGVPSRFSGSGSGTDFIFTISSLQPEDIATYYCQQYEAFGPGTKVDIK
B4: GT8-D36-21_CLK09 (antibody, V domains shown)
VH: QVQLVQSGAEVKKPGASVKVSCKASGYTFTGYYIHWVRQAPGQGLKWMGWINPNSGGTNYAQKFQGRVTMTRDTSISTAYLELSRLRSDDTAVYYCARVEGLWTFDIWGQGTMVTVSS
VL: DIQMTQSPSSLSASVGDRVTITCQASQDISNYLNWYQQKPGKAPKLLIYDASNLETGVPSRFSGSGSGTDFTFTIGSLQSEDIATYYCQQYEFFGGGTKVEIK
B5: GT8-D36-20_CLK09 (antibody, V domains shown)
VH: QVQLVQSGAEVKKPGASVKVSCKASGYTFTGYYIHWVRQAPGQGLKWMGWINPNSGGTNYAQKFQGRVTMTRDTSISTAYLELSRLRSDDTAVYYCARVEGLWTFDIWGQGTMVTVSS
VL: DIQMTQSPSSLSASVGDRVTITCQASQDISNYLNWYQQKPGKAPKLLIYDASNLETGVPSRFSGSGSGTDFIFTISSLQSEDMATYYCQQYEFFGGGTKVEIK
B6: GT8-D36-19_CLK09 (antibody, V domains shown)
VH: QVQLVQSGAEVRKPGASVKVSCKASGYTFTGYYIHWVRQAPGQGLEWMGWINPNSGGTNYEQKFQGRVTMTRDTSISTAYLELSRLRSDDTAVYYCARVEGLWTFDIWGQGTMVTVSS
VL: DIQMTQSPSSLSASVGDRVTITCQASQDISNYLNWYQQKPGKAPKLLIYDASNLETGVPSRFSGSGSGTDFTFTISSLQSEDIATYYCQQYEFFGGGTKVEIK
B7: GT8-D36-16_CLK09 (antibody, V domains shown)
VH: QVQLVQSGAEVKKPGASVKVSCKASGYTFTGYYIHWVRQAPGQGLKWMGWINPNSGGTNYAQKFQGRVTMTRDTSISTAYLELSRLRSDDTAVYYCARVEGLWTFDIWGQGTMVTVSS
VL: DIQMTQSPSSLSASVGDRVTITCQASQDISNYLNWYQQKPGKAPKVLIYDASNLETGVPSRFSGSGSGTDFTFTISSLQSEDIATYYCQQYEFFGGGTKVEIK
B8: GT8-D36-17_CLK09 (antibody, V domains shown)
VH: QVQLVQSGAEVKKPGASVKVSCKASGYTFSGYYIHWVRQAPGQGLKWMGWINPNSGGTNYAQKFQGRVTMTRDTSISTAYLELSRLRSDDTAVYYCARVEGLWTFDIWGQGTMVTVSS
VL: DIQMTQSPSSLSASIGDRVTITCQASQDISNYLNWYQQKPGKAPKLLIYDASNLETGVPSRFSGSGSGTDFTFTISSLQSEDIATYYCQQYEFFGGGTKVEIK
B9: GT8-D36-15_CLK09 (antibody, V domains shown)
VH: QVQLVQSGAEVKKPGASVKVSCKASGYTFTGHYIHWVRQAPGQGLKWMGWINPNSGGTNNAQKFQGRVTMTRDTSISTAYLELSRLRSDDTAVYYCARVEGLWTFDIWGQGTMVTVSS
VL: DIQMTQSPSSLSASVGDRVTITCQASQDISNYLNWYQQTPGKAPKLLIYDASNLETGVPSRFSGSGSGTDFTFTISSLQSEDIATYYCQQFEFFGGGTKVEIK
B10: GT8-D36-2_CLK09 (antibody, V domains shown)
VH: QVQLVQSGAEVKKPGASVKVSCKASGYTFTGYYMNWVRQAPGQGLEWMGWINPNSGGTNYAQQFQGRVTMTRDTSISTAYMELSRLKSDDTAVYYCARVDGKKKTFDIWGQGTMVTVSS
VL: DIQMTQSPSSLSASVGDRVTITCQASQDISNYLNWYQQKPGKAPKLLIYDVSNLETGVPSRFSGSGSGTAFTFTISSLQPEDIATYYCQQYEFFGGGTKVEIK
B11: g5-D78-21_CLK19 (antibody, V domains shown)
VH: QVQLVQSGAEVKKPGASVKVSCKTSGYTFTGYFLHWVRQAPGQGLEWMGWINPNSGGINYAQKFQGRVTMTRDTSINTAYMELSRLRSDDTAVYYCTPVLTNFRWPFAFWGQGTLVTVSS
VL: DIQMTQSPSSLSASVGDRVTITCQASQDIKNYLNWYQQKPGTAPKLLIYDTSNLETGVPSRFSGSGSGTDFTFTISSLQPEDIATYYCQQYETFGPGTKVDIK
B12: GT8-D36-14_CLK09 (antibody, V domains shown)
VH: not shown
VL: DIQMTQSPSSLSASVGDRVTITCQASQDISNYLNWYQQKPGKAPKLLIYDASNLETGVPSRFSGSGSGTDFTFTISSLQPEDIATYYCQQYEFFGGGTKVEIK
B13: g5-D78-22_CLK19 (antibody, V domains shown)
VH: QVQLVQSGAEVKKPGASVKVSCKASGYTFTGYYIHWVRQAPGHGLEWLGWINPNYGAVNYARKFQGRVTLTRDTSISTAFMELQSLRSDDTAIYHCTISLAGYRWGFDYWGQGALVTVSS
VL: DIQMTQSPSSLSAFVGDRVTITCQARLDIRYSLNWYQQKPGKAPNLLIYDVSNLEIGVPSRFSGSGSGTNFTFTISTLQPEDIATYYCQQYETFGPGTKVDIK
B14: g5-D78-7_CLK19 (antibody, V domains shown)
VH: QVQLVQSGAEVKKPGASVKVSCKASGYTFTGYYIHWVRQAPGQGLEWMGWINPSYGAVNYARKFQGRVTMTRDTSISTAYMELQRLRSDDTAIYHCTIALAGYRWGFDYWGQGALVTVSS
VL: DIQMTQSPSSLSAFVGDRVTITCQARLDISYSLNWYQQKPGKAPNLLIYDASNLETGVPSRFSGSGSGTNFTFAISALQPEDIATYYCQQYETFGPGTKVHIK
B15: GT8-D36-10_CLK19 (antibody, V domains shown)
VH: QVQLVQSGAEVKKPGASVKVSCKASGYSFTGYYIHWVRQAPGQGLEWMGWTNPNSGGTNYAQKLEGRVTMTRDTSISTAYMELSRLRFDDTAVYYCALAGYRWRFDYWGQGTLVTVSS
VL: not shown
B16: GT8-D36-18_CLK21 (antibody, V domains shown)
VH: QVQLVQSGAEVKKPGASVKVSCKTSGYTFTDYYMHWVRQAPGQGLEWMGWINPNSGGTNYAQRFQGRVTMTRDTSISTAYMELSRLRSDDTAVYYCASALRDSQPWWFDPWGQGTLVTVSS
VL: DIQMTQSPSTLSASVGDRVTITCRASQSISSWLAWYQQKPGKAPKLLIYKASSLESGVPSRFSGSGSGTEFTLTISSLQPDDFATYYCQQYDTFGGGTKVEIK
B17: g5-D78-20_CLK19 (antibody, V domains shown)
VH: QVQLVQSGAEVKKPGASVKVSCKASGYIFTDYNMHWVRQAPGQGLEWMAWINPRSGGRNIVQKFQGRVTMTRDTSISTAFMELSGLRSDDTAVYFCTPVLAPFRWRFAYWGQGTLVTVSS
VL: DIQMTQSPSSLSASVGDRVTITCQASQDINYLNWYQQKPGKAPKLLIYDASNLETGVPSRFSGSGSGTDFTFTISSLQPENIATYYCQQYAAFGPGTKVDIK
B18: g5-D78-3_CLK19 (antibody, V domains shown)
VH: QVQLVQSGAEVKKPGASVKVSCKASGYIFTDYNMHWVRQAPGQGLEWMGWINPSFGGRNIVQKFQGRVTMTRDTSISTAYMELSGLRSDDTAVYFCTPVLAPFRWPFAYWGQGTLVTVSS
VL: DIQMTQSPSSLSASVGDRVTITCQASQDINYLNWYQQKPGKAPKLLIYDASNLETGVPSRFSGSGSGTDFTFTISSLQPEDIATYYCQQYAAFGPGTKVDNK
B19: g5-D78-9_CLK19 (antibody, V domains shown)
VH: QVQLVQSGAEVKKPGASVKVSCKASGYIFTDYNMHWVRQAPGQGLEWMGWINPRFGGRNIVQKFQGRVTMTRDTSISTAYMELSGLRSDDTAVYFCTPVLAPFRWPFAYWGQGTLVTVSS
VL: DIQMTQSPSSLSASVGDRVTITCQASQDINYLNWYQQKPGKAPKLLIYDASNLETGVPSRFSGSGSGTDFTFTISSLQPEDIATYYCQQYAAFGPGTKVDIK
B20: g5-D78-4_CLK19 (antibody, V domains shown)
VH: QVQLVQSGAEVKKPGASVKVSCKASGYIFTDYNMHWVRQAPGQGLEWMGWINPRFGGRNIVQKFQGRVTMTRDTSSSTAYMELSGLRSDDTAVYFCTPVLAPFRWPFAYWGQGTLVTVSS
VL: DIQMTQSPSSLSASVGDRVTITCQASQDINYLNWYQQKPGKAPKLLIYDASNLETGVPSRFSGSGSGTDFTFTISSLQPEDIATYYCQQYAAFGPGTKVDIK
B21: g5-D78-23_CLK09 (antibody, V domains shown)
VH: QVQLVQSGAEVKKPGASVKVSCKASGYTFTDYYMHWVRQAPGQGLEWVGWINPNSGGMNFAQRFQDRVTMTRDTSISTAYMELSRLQSDDSAVYFCARVGGLWIGEKWTFDIWGQGTMVTVSS
VL: DIQMTQSPSSLSASVGDRVTITCQASQDISTYLNWYQQRPGKAPKLLIYGASNLATGVPSRFSGSGSGTDFTFTISSLQPEDIATYYCQLYEFFGGGTKVEIK
B22: GT8-D36-13_CLK09 (antibody, V domains shown)
VH: QVQLVQSGAEVKKPGASVKVSCKASGYTFTGYYIHWVRQAPGQGLKWMGWINPNSGGTNYAQKFQGRVTMTRDTSISTAYLELSRLRSDDTAVYYCARVEGLWTFDIWGQGTMVTVSS
VL: DIQMTQSPSSLSASVGDRVTITCQASQDISNYLNWYQQKPGKAPKVLIYDASNLETGVPSRFSGSGSGTDFTFTISSLQSEDVATYYCQQYEFFGGGTTVEIK
B23: g5-D78-8_CLK09 (antibody, V domains shown)
VH: QVQLVQSGAEVKKPGVSVKVSCKASGYTFNGYYMHWVRQAPGQGLEWMGWINPNNGGINIARRFEDRVTMTRDTSITTAHMELSRLRSDDSAVYYCARVGGLWFGEKWTFDIWGQGTMVTVSS
VL: DIQMTQSPSSLSASVGDRVTITCQTSQDISTFLNWYQQRPGKAPKLLIYGACNLATGVPSRFSGSGSGTDFTFTISSLQPEDIATYYCQQYEFFGGGTKVEIK

The target in the assay is eOD-GT8 (monomeric ligand) (Human immunodeficiency virus 1, …).
A word on the Kd: it is the equilibrium constant for the complex coming apart. Read a low Kd as tighter binding. B1 displayed a Kd of 0.42 nM.

Take B2: binding was put at a Kd of 0.26 nM. This Kd lies about 1.6-fold lower than the previous one. In turn, B3 showed a Kd of 2 nM. Compared with the last molecule, the Kd is about 7.7-fold higher. To B4 belongs 6.07 nM.

Regarding B5, the Kd is 8.37 nM. This Kd and that of the molecule before are within 1.5-fold of each other. Under B6 stands 0.958 nM. In the case of B7, the affinity, expressed as Kd, was 37.9 nM. Consider B8, for which the Kd amounted to 4.09 nM.

The molecule B9 registered a Kd of 260 nM. Compared with the last molecule, the Kd is about 64-fold higher.

Molecule B10 returned a Kd of 0.997 nM.

B11 displayed a Kd of 0.29 nM. Under B12 stands 26.9 nM. For B13, the affinity, expressed as Kd, was 100 nM.

The molecule B14 returned a Kd of 23 nM. On to B15, for which the Kd turned out to be 4.3 nM. B16 came in with a Kd of 2.63 nM. To B17 belongs 3.4 nM; to B18, 0.87 nM. B19: binding was put at a Kd of 2.1 nM. To B20 belongs 2.1 nM.

The molecule B21 returned a Kd of 0.078 nM. B22 gave an equilibrium dissociation constant (Kd) of 534 nM.

B23: the affinity, expressed as Kd, was 0.14 nM.

The record behind these values is PMC11488661 (Science immunology, 2024).
